{
  "source": "paper PMC7271948",
  "about": "“A baculoviral system for the production of human β-glucocerebrosidase enables atomic resolution analysis” (Acta Crystallographica. Section D, Structural Biology, 2020)",
  "proteins": {"B1": {"name": "β-glucocerebrosidase (GBA) (Homo sapiens) (protein)", "chain": "ARPCIPKSFGYSSVVCVCNATYCDSFDPPTFPALGTFSRYESTRSGRRMELSMGPIQANHTGTGLLLTLQPEQKFQKVKGFGGAMTDAAALNILALSPPAQNLLLKSYFSEEGIGYNIIRVPMASCDFSIRTYTYADTPDDFQLHNFSLPEEDTKLKIPLIHRALQLAQRPVSLLASPWTSPTWLKTNGAVNGKGSLKGQPGDIYHQTWARYFVKFLDAYAEHKLQFWAVTAENEPSAGLLSGYPFQCLGFTPEHQRDFIARDLGPTLANSTHHNVRLLMLDDQRLLLPHWAKVVLTDPEAAKYVHGIAVHWYLDFLAPAKATLGETHRLFPNTMLFASEACVGSKFWEQSVRLGSWDRGMQYSHSIITNLLYHVVGWTDWNLALNPEGGPNWVRNFVDSPIIVDITKDTFYKQPMFYHLGHFSKFIPEGSQRVGLVASQKNDLDAVALMHPDGSAVVVVLNRSSKDVPLTIKDPAVGFLETISPGYSIHTYLWRRQ"}},
  "substrate": "Cc1cc(=O)oc2cc(O[C@@H]3O[C@H](CO)[C@@H](O)[C@H](O)[C@H]3O)ccc12",
  "assay": "purified protein",
  "data": [
    {"protein": "B1", "values": [
      {"measurement": "Km", "value": "1288 ± 51", "unit": "µM"},
      {"measurement": "Vmax", "value": 11.7, "unit": "µM/min"},
      {"measurement": "kcat", "value": 19.6, "unit": "s⁻¹"}
    ]}
  ]
}
